According to patent US20200040059A1:
Values joined by “and” are separate entries in the source; they are usually repeats but may differ in a detail not shown here. Equal values may be shown once.

T1: CD96 (UniProt P40200)
T1 sequence (looked up): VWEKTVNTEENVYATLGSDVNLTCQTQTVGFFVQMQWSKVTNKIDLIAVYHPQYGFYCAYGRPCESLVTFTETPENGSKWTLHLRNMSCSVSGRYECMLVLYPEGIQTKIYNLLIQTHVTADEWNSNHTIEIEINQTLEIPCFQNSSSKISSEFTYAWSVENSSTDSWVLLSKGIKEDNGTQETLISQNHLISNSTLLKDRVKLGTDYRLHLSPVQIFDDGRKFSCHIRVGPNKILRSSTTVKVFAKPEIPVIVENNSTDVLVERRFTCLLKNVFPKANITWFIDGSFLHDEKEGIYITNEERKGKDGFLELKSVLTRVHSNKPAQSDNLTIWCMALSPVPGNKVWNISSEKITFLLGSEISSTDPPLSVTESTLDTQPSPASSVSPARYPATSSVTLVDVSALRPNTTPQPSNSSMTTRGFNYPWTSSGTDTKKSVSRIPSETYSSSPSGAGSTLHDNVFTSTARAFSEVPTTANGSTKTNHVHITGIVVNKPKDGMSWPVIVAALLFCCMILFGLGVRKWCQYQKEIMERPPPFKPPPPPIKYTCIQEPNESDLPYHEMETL

T2: CD226 (human) (UniProt Q15762)
T2 sequence: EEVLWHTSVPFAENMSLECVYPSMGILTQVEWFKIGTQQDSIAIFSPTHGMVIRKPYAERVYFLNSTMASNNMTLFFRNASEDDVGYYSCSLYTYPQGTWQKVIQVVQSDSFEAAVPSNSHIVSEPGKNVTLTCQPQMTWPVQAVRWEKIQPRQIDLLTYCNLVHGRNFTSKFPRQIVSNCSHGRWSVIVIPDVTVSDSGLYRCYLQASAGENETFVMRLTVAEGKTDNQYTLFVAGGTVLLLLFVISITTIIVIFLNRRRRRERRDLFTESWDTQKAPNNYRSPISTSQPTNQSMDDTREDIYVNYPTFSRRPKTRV


Experiments:
CD96 [1] = target: T1, CD96; assay: flow cytometry, cells
CD226 (human) [2] = target: T2, CD226 (human); assay: flow cytometry, transfected cells
CD96 [3] = target: T1, CD96; assay: flow cytometry, CD96-expressing cells
CD226 (human) [4] = target: T2, CD226 (human); assay: flow cytometry, CD226-expressing cells
[5] = target: PD-1 (Homo sapiens (Human)) (UniProt Q15116); assay: flow cytometry, Jurkat/PD-1 cells
[6] = target: PD-1 (Homo sapiens (Human)) (UniProt Q15116); assay: flow cytometry, Jurkat/PD-1 cells; vs wildtype PD-L2 IgV-Fc

PD-1 (Homo sapiens (Human)), sequence (Q15116 21-288 limits assumed): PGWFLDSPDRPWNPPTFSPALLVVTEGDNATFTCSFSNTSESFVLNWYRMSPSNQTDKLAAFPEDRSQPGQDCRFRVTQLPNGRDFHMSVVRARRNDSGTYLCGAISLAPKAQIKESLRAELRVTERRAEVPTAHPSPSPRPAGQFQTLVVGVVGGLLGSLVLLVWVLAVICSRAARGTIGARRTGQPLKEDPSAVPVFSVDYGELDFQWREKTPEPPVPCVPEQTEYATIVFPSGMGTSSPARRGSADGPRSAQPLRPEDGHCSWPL

Binder	MFI (CD96 [1])	MFI (CD226 (human) [2])	MFI at 11.1 nM (CD226 (human) [4])	Fold Change from CD155-ECD (CD226 (human) [4])	further results
CD155 A13E, P18S, A56V, F91S IgV-Fc (Fc fusion, not shown: a dimerising Fc or GST; small tags and cut ends) PGTGDVVVQEPTQVSGFLGDSVTLPCYLQVPNMEVTHVSQLTWARHGESGSMVVFHQTQGPSYSESKRLEFVAARLGAELRNASLRMSGLRVEDEGNYTCLFVTFPQGSRSVDIWL	119000	358000	–	–	–
CD155 P18T, S42P, F91S IgV-Fc (Fc fusion, not shown: a dimerising Fc or GST; small tags and cut ends) PGTGDVVVQAPTQVTGFLGDSVTLPCYLQVPNMEVTHVPQLTWARHGESGSMAVFHQTQGPSYSESKRLEFVAARLGAELRNASLRMSGLRVEDEGNYTCLFVTFPQGSRSVDIWL	135000	554000	–	–	–
CD155 P18T, Q60K IgV-Fc (Fc fusion, not shown: a dimerising Fc or GST; small tags and cut ends) PGTGDVVVQAPTQVTGFLGDSVTLPCYLQVPNMEVTHVSQLTWARHGESGSMAVFHKTQGPSYSESKRLEFVAARLGAELRNASLRMFGLRVEDEGNYTCLFVTFPQGSRSVDIWL	154000	238000	–	–	–
CD155 L44P IgV-Fc (Fc fusion, not shown: a dimerising Fc or GST; small tags and cut ends) PGTGDVVVQAPTQVPGFLGDSVTLPCYLQVPNMEVTHVSQPTWARHGESGSMAVFHQTQGPSYSESKRLEFVAARLGAELRNASLRMFGLRVEDEGNYTCLFVTFPQGSRSVDIWL	152000	581000	–	–	–
CD155 R94H IgV-Fc (Fc fusion, not shown: a dimerising Fc or GST; small tags and cut ends) PGTGDVVVQAPTQVPGFLGDSVTLPCYLQVPNMEVTHVSQLTWARHGESGSMAVFHQTQGPSYSESKRLEFVAARLGAELRNASLRMFGLHVEDEGNYTCLFVTFPQGSRSVDIWL	11700	18900	–	–	–
variant PD-L2 IgV-Fc I13V, H15Q, R76G, D77N, Q82R, V89D (Fc fusion, not shown: a dimerising Fc or GST; small tags and cut ends) FTVTVPKELYIVEQGSNVTLECNFDTGSHVNLGAITASLQKVENDTSPHRERATLLEEQLPLGKASFHIPQVQVGNEGQYRCIIIYGDAWDYKYLTLK	–	–	–	–	MFI at 50 nM [5]: 33100; Fold increase over wildtype PD-L2 IgV-Fc [6]: 3.36 fold
variant PD-L2 IgV-Fc I13V, H15Q, T47A, Q82R, V89D (SEQ ID NO 1544) (Fc fusion, not shown: a dimerising Fc or GST; small tags and cut ends) FTVTVPKELYIVEQGSNVTLECNFDTGSHVNLGAITASLQKVENDASPHRERATLLEEQLPLGKASFHIPQVQVRDEGQYRCIIIYGDAWDYKYLTLK	–	–	–	–	MFI at 50 nM [5]: 63300; Fold increase over wildtype PD-L2 IgV-Fc [6]: 6.43 fold
CD155 variant IgV-Fc P18L, K70E, L79P, F91S, V95A, G111R (Fc fusion, not shown: a dimerising Fc or GST; small tags and cut ends) WPPPGTGDVVVQAPTQVLGFLGDSVTLPCYLQVPNMEVTHVSQLTWARHGESGSMAVFHQTQGPSYSESERLEFVAARPGAELRNASLRMSGLRAEDEGNYTCLFVTFPQRSRSVDIWL	–	–	1120 MFI	0.07 fold	Fold Change from CD155-ECD (CD96 [3]): 0.06 fold; MFI at 11.1 nM (CD96 [3]): 973 MFI
CD155 variant IgV-Fc P18C, T26M, L44V, M55I, Q62K, L79P, F91S, L104M, T107M (Fc fusion, not shown: a dimerising Fc or GST; small tags and cut ends) WPPPGTGDVVVQAPTQVCGFLGDSVMLPCYLQVPNMEVTHVSQVTWARHGESGSIAVFHQTKGPSYSESKRLEFVAARPGAELRNASLRMSGLRVEDEGNYTCMFVMFPQGSRSVDIWL	–	–	973 MFI	0.06 fold	–
CD155 variant IgV-Fc P18F, S65A, S67V, F91S, L104M, G111R (Fc fusion, not shown: a dimerising Fc or GST; small tags and cut ends) WPPPGTGDVVVQAPTQVFGFLGDSVTLPCYLQVPNMEVTHVSQLTWARHGESGSMAVFHQTQGPAYVESKRLEFVAARLGAELRNASLRMSGLRVEDEGNYTCMFVTFPQRSRSVDIWL	–	–	901 MFI	0.06 fold	–
CD155 variant IgV-Fc P18F, L79P, M90L, F91S, V95A, L104M, G111R (Fc fusion, not shown: a dimerising Fc or GST; small tags and cut ends) WPPPGTGDVVVQAPTQVFGFLGDSVTLPCYLQVPNMEVTHVSQLTWARHGESGSMAVFHQTQGPSYSESKRLEFVAARPGAELRNASLRLSGLRAEDEGNYTCMFVTFPQRSRSVDIWL	–	–	917 MFI and 1070 MFI	0.06 fold and 0.07 fold	–

Further lines, with some results ahead:

MFI (CD96 [1])	MFI (CD226 (human) [2])	MFI at 11.1 nM (CD226 (human) [4])	Fold Change from CD155-ECD (CD226 (human) [4])	Binder	further results
–	–	974 MFI	–	CD155 variant IgV-Fc V11A, P18S, L79P, F91S, L104M, G111R (Fc fusion, not shown: a dimerising Fc or GST; small tags and cut ends) PGTGDVVAQAPTQVSGFLGDSVTLPCYLQVPNMEVTHVSQLTWARHGESGSMAVFHQTQGPSYSESKRLEFVAARPGAELRNASLRMSGLRVEDEGNYTCMFVTFPQRSRSVDIWL	MFI at 11.1 nM (CD96 [3]): 923 MFI
–	–	910 MFI	0.06 fold	CD155 variant IgV-Fc V9L, P18L, L79P, M90I, F91S, T102S, L104M, G111R (Fc fusion, not shown: a dimerising Fc or GST; small tags and cut ends) WPPPGTGDLVVQAPTQVLGFLGDSVTLPCYLQVPNMEVTHVSQLTWARHGESGSMAVFHQTQGPSYSESKRLEFVAARPGAELRNASLRISGLRVEDEGNYSCMFVTFPQRSRSVDIWL	–
–	–	897 MFI	0.06 fold	CD155 variant IgV-Fc V9I, P18T, D23G, L79P, F91S, G111R (Fc fusion, not shown: a dimerising Fc or GST; small tags and cut ends) WPPPGTGDIVVQAPTQVTGFLGGSVTLPCYLQVPNMEVTHVSQLTWARHGESGSMAVFHQTQGPSYSESKRLEFVAARPGAELRNASLRMSGLRVEDEGNYTCLFVTFPQRSRSVDIWL	–
